This is an account of results in patent US10034836B2, “Formulations of guanylate cyclase C agonists and methods of use” (SYNERGY PHARMACEUTICALS, INC., priority 2008, dated 2018).

Where a SMILES comes first, the peptide text is derived from it. Bridges are numbered along the chain shown (N, C = ends). Primed or numbered codes have the meaning given here. Where no end group is shown, it is not given here. [ ]: non-standard residue; d: D form. PEG3′ = polyethylene glycol such as aminoethyloxy-ethyloxy-acetic acid (AeeA), and polymers thereof

A short description of data set [1]: Stability in simulated intestinal fluid (SIF), biological activity by cGMP synthesis in T84 cells. It counts as in vitro ADME. As to the method: FIG. 2A: Biological activity of SP-304 incubated for varying lengths of time in simulated intestinal fluid (SIF). SP-304 samples were incubated for 0, 30, 60, 90, 150, and 300 min, respectively, and then tested for their ability to stimulate cGMP synthesis in T84 cells. The cGMP stimulation activity in the sample at 0 min of incubation time in SIF was taken as 100% biological activity. The activities of the other SP-304 incubation samples were calculated as the percentage of activity relative to that of the 0 min sample. Data points shown are the average of triplicate measurements±SD.
(§1) FIG. 7A: Biological activity of SP-333 incubated for varying lengths of time in simulated intestinal fluid (SIF). SP-333 samples incubated for 0, 5, 10, 30, 60, and 120 min, respectively, were tested for their ability to stimulate cGMP synthesis in T84 cells. The control sample marked as C120 was produced by incubating SP-333 with heat inactivated SIF for 120 min. Samples from the incubations were removed and heated at 95° C. for 5 min to inactivate digestive enzymes and then used to stimulate cyclic GMP synthesis in T84 cells. The cGMP stimulation activity in the sample at 0 min of incubation time in SIF was taken as 100% biological activity. The activities of the other SP-304 incubation samples were calculated as the percentage of activity relative to that of the 0 min sample. Data points shown are the average of triplicate measurements±SD.
as §1, with “FIG. 7B:” for “FIG. 7A:”, “of SP-332” for “of SP-333”, “incubating SP-332” for “incubating SP-333”
FIG. 7C: Biological activity of SP-304 incubated for varying lengths of time in simulated intestinal fluid (SIF). SP-304 samples incubated for 0, 10, and 60 min, respectively, were tested for their ability to stimulate cGMP synthesis in T84 cells. The control samples marked as C0 and C60 were produced by incubating SP-304 with heat inactivated SIF for 0 and 60 min, respectively. Samples from the incubations were removed and heated at 95° C. for 5 min to inactivate digestive enzymes and then used to stimulate cyclic GMP synthesis in T84 cells. The cGMP stimulation activity in the sample at 0 min of incubation time in SIF was taken as 100% biological activity. The activities of the other SP-304 incubation samples were calculated as the percentage of activity relative to that of the 0 min sample. […]
FIGS. 7G-1-7G-5: Incubation of SP-333 with SIF for 2, 6, 12 and 24 hrs. Effect of SIF digestion on the activity of SP-333 in T84 stimulation assay was determined (FIG. 7G-1) and samples were also analyzed by HPLC (FIGS. 7G2-5). […]
The stability of SP-304 was also evaluated after incubation with simulated intestinal fluid (SIF) by measuring its biological activity and by HPLC analyses (FIGS. 2A & 2B). […]

The next data set deals with T1, intestinal GC-C receptor (Homo sapiens, UniProt P25092).
T1 construct: confluent monolayers of T-84 cells in 24-well plates; host or cells: T84 human colon carcinoma cells
As to the kind of experiment: Cyclic GMP stimulation assay in T84 cells. The class given is cell-based. The settings on record: for potency in cGMP stimulation assay relative to SP-339 (linaclotide): 30 min exposure (FIG. 6); for potency to stimulate cGMP synthesis in T84 cells relative to SP-333: peggylated analogs of SP-333, 30 min (FIG. 8); for ability to stimulate cGMP synthesis in T84 cells relative to SP-304: 30 min exposure (FIG. 5). An excerpt:
FIG. 4: Biological activity of truncated peptides of 16-mer SP-304, as measured by stimulation of cGMP synthesis in T84 cells. SP-338 15-mer peptide is indentical to SP-304 except that it lacks Leu at the C-terminus. SP-327, SP-329 and SP-331 lack Leu at their C-termini relative to their corresponding parents, SP-326, SP-328 and SP-330, respectively. Data points shown are the average of duplicate measurements.
FIG. 5: Stimulation of cGMP synthesis in T84 cells by SP-304 and similar analogs. T84 cells were exposed to test peptides for 30 min and cell lysates were then used to determine intracellular cGMP levels. Data points shown are the average of triplicate measurements±SD.
FIG. 6: Stimulation of cGMP synthesis in T84 cells by SP-339 (linaclotide) and other linaclotide analogs. T84 cells were exposed to test peptides for 30 min and cell lysates were then used to determine intracellular cGMP levels. Data points shown are the average of triplicate measurements±SD.
FIG. 8: Stimulation of cGMP synthesis in T84 cells by the peggylated analogs of SP-333. T84 cells were exposed to the indicated peptides for 30 min and cell lysates were used to determine intracellular cGMP levels. Data points shown are the average of triplicate measurements±SD.
After the 30 min incubation, the medium was aspirated and the reaction was terminated by the addition of 3% perchloric acid. Following centrifugation and the addition of NaOH (0.1 N) to neutralize the pH, intracellular cGMP levels were determined in lysates using a cGMP ELISA kit (Cat. No. 581021; Cayman Chemical, Ann Arbor, Mich.). Peptide incubations were run in duplicate, and samples taken from each incubation were run as duplicates in the ELISA test.
The ability of the GCC agonist peptide to bind to and activate the intestinal GC-C receptor was tested using T84 human colon carcinoma cell line. Human T84 colon carcinoma cells were obtained from the American Type Culture Collection. Cells were grown in a 1:1 mixture of Ham's F-12 medium and Dulbecco's modified Eagle's medium (DMEM) supplemented with 10% fetal bovine serum, 100 U penicillin/ml, and 100 μg/ml streptomycin. The cells were fed fresh medium every third day and split at a confluence of approximately 80%.
Biological activity of the GCC agonist peptides was assayed as previously reported (Shailubhai, et al., Cancer Research 60, 5151-5157 (2000)). Briefly, the confluent monolayers of T-84 cells in 24-well plates were washed twice with 250 μl of DMEM containing 50 mM HEPES (pH 7.4), pre-incubated at 37° C. for 10 min with 250 μl of DMEM containing 50 mM HEPES (pH 7.4) and 1 mM isobutylmethylxanthine (IBMX), followed by incubation with GCC agonist peptides (0.1 nM to 10 µM) for 30 min. The medium was aspirated, and the reaction was terminated by the addition of 3% perchloric acid. Following centrifugation, and neutralization with 0.1 N NaOH, the supernatant was used directly for measurements of cGMP using an ELISA kit (Caymen Chemical, Ann Arbor, Mich.).
An additional strategy to render peptides more resistant towards digestion by digestive proteases is to peggylate them at the N- and C-terminus. The peptide SP-333 was peggylated with the aminoethyloxy-ethyloxy-acetic acid (Aeea) group at the C-terminus (SP-347) or at the N-terminus (SP-350) or at both termini (SP-343). Cyclic GMP synthesis in T84 cells was measured by the method as described above.

T1 sequence (P25092 24-1073): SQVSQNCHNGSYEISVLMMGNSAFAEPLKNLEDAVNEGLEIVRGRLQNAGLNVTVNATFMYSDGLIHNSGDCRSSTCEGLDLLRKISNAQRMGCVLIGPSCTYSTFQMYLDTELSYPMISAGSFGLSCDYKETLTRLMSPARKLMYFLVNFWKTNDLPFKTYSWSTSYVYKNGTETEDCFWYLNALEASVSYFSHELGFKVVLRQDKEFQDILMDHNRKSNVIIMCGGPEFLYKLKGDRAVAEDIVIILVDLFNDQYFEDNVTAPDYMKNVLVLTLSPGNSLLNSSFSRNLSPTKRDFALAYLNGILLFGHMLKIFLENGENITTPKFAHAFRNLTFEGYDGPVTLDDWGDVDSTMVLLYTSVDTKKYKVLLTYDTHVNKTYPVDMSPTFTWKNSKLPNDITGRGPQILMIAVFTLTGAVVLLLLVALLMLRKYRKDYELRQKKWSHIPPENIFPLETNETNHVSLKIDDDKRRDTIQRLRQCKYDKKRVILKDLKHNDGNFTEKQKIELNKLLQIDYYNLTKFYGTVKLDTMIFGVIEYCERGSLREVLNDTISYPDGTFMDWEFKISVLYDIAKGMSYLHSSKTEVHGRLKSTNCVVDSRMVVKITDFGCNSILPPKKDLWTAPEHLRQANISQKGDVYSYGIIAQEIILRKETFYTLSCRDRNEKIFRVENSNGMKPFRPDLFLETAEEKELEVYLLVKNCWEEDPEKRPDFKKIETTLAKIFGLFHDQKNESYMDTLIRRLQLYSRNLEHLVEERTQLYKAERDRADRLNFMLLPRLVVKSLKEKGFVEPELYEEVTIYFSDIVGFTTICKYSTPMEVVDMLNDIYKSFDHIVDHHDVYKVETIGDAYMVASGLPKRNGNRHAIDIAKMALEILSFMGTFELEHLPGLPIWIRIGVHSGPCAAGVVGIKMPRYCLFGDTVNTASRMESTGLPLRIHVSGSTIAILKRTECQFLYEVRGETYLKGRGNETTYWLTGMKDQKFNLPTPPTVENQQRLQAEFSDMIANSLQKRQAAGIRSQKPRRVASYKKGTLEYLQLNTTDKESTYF

In the case of `CC(C)C[C@@H]1NC(=O)[C@H](CCC(=O)O)NC(=O)[C@@H](NC(=O)[C@H](CCC(=O)O)NC(=O)[C@H](CC(=O)O)NC(=O)[C@@H](N)CC(N)=O)CSSC[C@@H]2NC(=O)[C@H](C)NC(=O)[C@H](C(C)C)NC(=O)[C@H](CC(N)=O)NC(=O)[C@H](C(C)C)NC(=O)[C@H](CSSC[C@@H](C(=O)N[C@H](CC(C)C)C(=O)O)NC(=O)CNC(=O)[C@H]([C@@H](C)O)NC2=O)NC1=O` [SP-332, Asn^1-Asp^2-Glu^3-Cys^4-Glu^5-Leu^6-Cys^7-Val^8-Asn^9-Val^10-Ala^11-Cys^12-Thr^13-Gly^14-Cys^15-dLeu^16] (H-NDECELCVNVACTGC[dL]-OH; disulfide 4-12, 7-15), the “potency following incubation with SIF” value in data set [1] is “minor reduction in potency”.

In the case of “Asn^1-Asp^2-Glu^3-Cys^4-Glu^5-Leu^6-Cys^7-Val^8-Asn^9-Val^10-Ala^11-Cys^12-Thr^13-Gly^14-Cys^15 (NDECELCVNVACTGC) [SP-338]”, the “biological activity retained relative to full length 16-mer SP-304 (cGMP synthesis in T84 cells)” value with intestinal GC-C receptor (peptide 1.0 μM, 30 min (FIG. 4)) is “about 80%”. For “Asn^1-Phe^2-Cys^3-Cys^4-Glu^5-Phe^6-Cys^7-Cys^8-Asn^9-Pro^10-Ala^11-Cys^12-Thr^13-Gly^14-Cys^15-Tyr^16 (NFCCEFCCNPACTGCY; disulfide 4-12, 7-15, 3-8) [SP-354]”, in the data set with intestinal GC-C receptor, the “potency in cGMP stimulation assay relative to SP-339 (linaclotide)” value is on record as “virtually identical to SP-339”.

For “Asn^1-Phe^2-Cys^3-Cys^4-Glu^5-Ser^6-Cys^7-Cys^8-Asn^9-Pro^10-Ala^11-Cys^12-Thr^13-Gly^14-Cys^15-Tyr^16 (NFCCESCCNPACTGCY; disulfide 4-12, 7-15, 3-8) [SP-353]”, the “potency in cGMP stimulation assay relative to SP-339 (linaclotide)” value with intestinal GC-C receptor was “more potent than SP-339”. The same measure, in the same setting: to “Cys^1-Cys^2-Glu^3-Tyr^4-Cys^5-Cys^6-Asn^7-Pro^8-Ala^9-Cys^10-Thr^11-Gly^12-Cys^13-dTyr^14 [SP-355]” belongs “considerably less potency”. As to “PEG3-dAsn^1-Asp^2-Glu^3-Cys^4-Glu^5-Leu^6-Cys^7-Val^8-Asn^9-Val^10-Ala^11-Cys^12-Thr^13-Gly^14-Cys^15-dLeu^16 ([PEG3′][dN]DECELCVNVACTGC[dL]; ends and bridges not checked) [SP-350]”, in the data set with intestinal GC-C receptor, the “potency to stimulate cGMP synthesis in T84 cells relative to SP-333” value (shortened to “potency … in T84 cells relative to SP-333”) is listed as “comparable to SP-333”.

Regarding “PEG3-dAsn^1-Asp^2-Glu^3-Cys^4-Glu^5-Leu^6-Cys^7-Val^8-Asn^9-Val^10-Ala^11-Cys^12-Thr^13-Gly^14-Cys^15-dLeu^16-PEG3 ([PEG3′][dN]DECELCVNVACTGC[dL][PEG3′]; ends and bridges not checked) [SP-343]”, in the data set with intestinal GC-C receptor, the “potency … in T84 cells relative to SP-333” value is “considerably less potent”.

For the compound “dAsn^1-Asp^2-Glu^3-Cys^4-Glu^5-Leu^6-Cys^7-Val^8-Asn^9-Val^10-Ala^11-Cys^12-Thr^13-Gly^14-Cys^15-dLeu^16-PEG3 ([dN]DECELCVNVACTGC[dL][PEG3′]; ends and bridges not checked) [SP-347]”, the “potency … in T84 cells relative to SP-333” value in the data set with intestinal GC-C receptor is “comparable to SP-333”. As for “dAsn^1-Asp^2-Glu^3-Cys^4-Glu^5-dLeu^6-Cys^7-Val^8-Asn^9-Val^10-Ala^11-Cys^12-Thr^13-Gly^14-Cys^15-dLeu^16 ([dN]DECE[dL]CVNVACTGC[dL]; ends and bridges not checked) [SP-337]”, the “ability to stimulate cGMP synthesis in T84 cells relative to SP-304” value in the data set with intestinal GC-C receptor is “virtually complete loss of biological activity”. On the same count and under the same terms, then “dAsn^1-dAsp^2-dGlu^3-Cys^4-Glu^5-Leu^6-Cys^7-Val^8-Asn^9-Val^10-Ala^11-Cys^12-Thr^13-Gly^14-Cys^15-dLeu^16 ([dN][dD][dE]CELCVNVACTGC[dL]; disulfide (positions not given here); also: disulfides, number and pairing not given here) [SP-335]”, with “comparable ability”.
